Laboratory results as given in PMC8210318, “The HelQ human DNA repair helicase utilizes a PWI-like domain for DNA loading through interaction with RPA, triggering DNA unwinding by the HelQ helicase core” (NAR Cancer, 2021).

B1: C-HelQ, HelQ 'core' helicase (826 amino acids) (domain or fragment, human, UniProt Q8TDG4 275-1101, looked up)
chain: GNAKAQTPIFSRSKQLKDTLLSEEINVAKKTVESSSNDLGPFYSLPSKVRDLYAQFKGIEKLYEWQHTCLTLNSVQERKNLIYSLPTSGGKTLVAEILMLQELLCCRKDVLMILPYVAIVQEKISGLSSFGIELGFFVEEYAGSKGRFPPTKRREKKSLYIATIEKGHSLVNSLIETGRIDSLGLVVVDELHMIGEGSRGATLEMTLAKILYTSKTTQIIGMSATLNNVEDLQKFLQAEYYTSQFRPVELKEYLKINDTIYEVDSKAENGMTFSRLLNYKYSDTLKKMDPDHLVALVTEVIPNYSCLVFCPSKKNCENVAEMICKFLSKEYLKHKEKEKCEVIKNLKNIGNGNLCPVLKRTIPFGVAYHHSGLTSDERKLLEEAYSTGVLCLFTCTSTLAAGVNLPARRVILRAPYVAKEFLKRNQYKQMIGRAGRAGIDTIGESILILQEKDKQQVLELITKPLENCYSHLVQEFTKGIQTLFLSLIGLKIATNLDDIYHFMNGTFFGVQQKVLLKEKSLWEITVESLRYLTEKGLLQKDTIYKSEEEVQYNFHITKLGRASFKGTIDLAYCDILYRDLKKGLEGLVLESLLHLIYLTTPYDLVSQCNPDWMIYFRQFSQLSPAEQNVAAILGVSESFIGKKASGQAIGKKVDKNVVNRLYLSFVLYTLLKETNIWTVSEKFNMPRGYIQNLLTGTASFSSCVLHFCEELEEFWVYRALLVELTKKLTYCVKAELIPLMEVTGVLEGRAKQLYSAGYKSLMHLANANPEVLVRTIDHLSRRQAKQIVSSAKMLLHEKAEALQEEVEELLRLPSDFPGAVASSTDKA
notes: human HelQ helicase core: the 826 amino acids that match Hel308; excludes the 274 amino acid N-terminal region; 85 kDa; The start at 275 follows from the excluded 274 residue N-terminal region; also called core HelQ helicase; source: Escherichia coli, purified (as described for HelQ)
B2: HelQ helicase, full length, human (enzyme, UniProt Q8TDG4 1-1101, looked up)
chain: MDECGSRIRRRVSLPKRNRPSLGCIFGAPTAAELVPGDEGKEEEEMVAENRRRKTAGVLPVEVQPLLLSDSPECLVLGGGDTNPDLLRHMPTDRGVGDQPNDSEVDMFGDYDSFTENSFIAQVDDLEQKYMQLPEHKKHATDFATENLCSESIKNKLSITTIGNLTELQTDKHTENQSGYEGVTIEPGADLLYDVPSSQAIYFENLQNSSNDLGDHSMKERDWKSSSHNTVNEELPHNCIEQPQQNDESSSKVRTSSDMNRRKSIKDHLKNAMTGNAKAQTPIFSRSKQLKDTLLSEEINVAKKTVESSSNDLGPFYSLPSKVRDLYAQFKGIEKLYEWQHTCLTLNSVQERKNLIYSLPTSGGKTLVAEILMLQELLCCRKDVLMILPYVAIVQEKISGLSSFGIELGFFVEEYAGSKGRFPPTKRREKKSLYIATIEKGHSLVNSLIETGRIDSLGLVVVDELHMIGEGSRGATLEMTLAKILYTSKTTQIIGMSATLNNVEDLQKFLQAEYYTSQFRPVELKEYLKINDTIYEVDSKAENGMTFSRLLNYKYSDTLKKMDPDHLVALVTEVIPNYSCLVFCPSKKNCENVAEMICKFLSKEYLKHKEKEKCEVIKNLKNIGNGNLCPVLKRTIPFGVAYHHSGLTSDERKLLEEAYSTGVLCLFTCTSTLAAGVNLPARRVILRAPYVAKEFLKRNQYKQMIGRAGRAGIDTIGESILILQEKDKQQVLELITKPLENCYSHLVQEFTKGIQTLFLSLIGLKIATNLDDIYHFMNGTFFGVQQKVLLKEKSLWEITVESLRYLTEKGLLQKDTIYKSEEEVQYNFHITKLGRASFKGTIDLAYCDILYRDLKKGLEGLVLESLLHLIYLTTPYDLVSQCNPDWMIYFRQFSQLSPAEQNVAAILGVSESFIGKKASGQAIGKKVDKNVVNRLYLSFVLYTLLKETNIWTVSEKFNMPRGYIQNLLTGTASFSSCVLHFCEELEEFWVYRALLVELTKKLTYCVKAELIPLMEVTGVLEGRAKQLYSAGYKSLMHLANANPEVLVRTIDHLSRRQAKQIVSSAKMLLHEKAEALQEEVEELLRLPSDFPGAVASSTDKA
notes: human HelQ DNA repair helicase, full length; Tetramer as apoenzyme and dimer with ATP-Mg2+ by SEC-MALS; also called HelQ apoenzyme; His-SUMO-SF-tagged HelQ; source: SF9 insect cells (Bac-to-Bac baculovirus), purified (ammonium sulphate, Ni-NTA, heparin, Q-sepharose); not shown: His6, N-terminal, kept; SUMO, N-terminal, kept; StrepII-Flag, N-terminal, kept

How the values were obtained:
[1] = target: the molecule itself; assay: SEC; analytical gel filtration of C-HelQ in ATP-Mg2+ and ssDNA, Superdex-200, against mass standards
[2] = target: the molecule itself; assay: SEC-MALS; HelQ with ATP-Mg2+: pre-incubated in 5 mM MgCl2 and 5 mM ATP at 37°C for 10 min, running buffer with 0.2 mM ATP and 0.2 mM MgCl2, Superdex-200
[3] = target: the molecule itself; assay: SEC-MALS; HelQ apoenzyme, 200 ul of 2.4 uM monomer, Superdex-200, 50 mM Tris-HCl pH 8.0, 150 mM NaCl, 10% glycerol, pre-incubated 10 min at 37°C; no ATP-Mg2+

Protein | stoichiometry N [1] | stoichiometry N [2] | stoichiometry N [3]
B1 | 2 |  | 
B2 |  | 2 | 4
